Measured values from patent publication US20240052042A1 (Novartis, published 2024).

Legend:
[1] = molecular target: T1, human Natriuretic Peptide Receptor 1 (hNPR1) (human, UniProt P16066 33-473, limits assumed); assay: FabCys affinity (Biacore per paragraph 323)
T1 construct: pannings used NPR1-hFc; also called NPR1-hFc
T1 sequence: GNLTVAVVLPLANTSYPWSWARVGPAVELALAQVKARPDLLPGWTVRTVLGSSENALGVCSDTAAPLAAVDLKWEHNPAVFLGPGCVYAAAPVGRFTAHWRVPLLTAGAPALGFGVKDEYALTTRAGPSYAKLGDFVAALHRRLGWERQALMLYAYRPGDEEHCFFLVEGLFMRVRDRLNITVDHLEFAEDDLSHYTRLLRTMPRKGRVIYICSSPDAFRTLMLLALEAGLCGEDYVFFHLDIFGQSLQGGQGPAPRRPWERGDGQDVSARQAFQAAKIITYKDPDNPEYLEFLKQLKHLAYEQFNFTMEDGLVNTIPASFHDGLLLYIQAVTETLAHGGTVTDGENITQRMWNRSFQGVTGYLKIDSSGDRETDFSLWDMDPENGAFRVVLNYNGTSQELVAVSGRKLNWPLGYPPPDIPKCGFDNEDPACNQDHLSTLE

rat NPR1 (rNPR1) [2] = molecular target: T2, rat NPR1 (rNPR1) (rat, UniProt P18910 29-469, limits assumed); assay: FabCys affinity (Biacore per paragraph 323)
T2 construct: Soluble antigen
T2 sequence: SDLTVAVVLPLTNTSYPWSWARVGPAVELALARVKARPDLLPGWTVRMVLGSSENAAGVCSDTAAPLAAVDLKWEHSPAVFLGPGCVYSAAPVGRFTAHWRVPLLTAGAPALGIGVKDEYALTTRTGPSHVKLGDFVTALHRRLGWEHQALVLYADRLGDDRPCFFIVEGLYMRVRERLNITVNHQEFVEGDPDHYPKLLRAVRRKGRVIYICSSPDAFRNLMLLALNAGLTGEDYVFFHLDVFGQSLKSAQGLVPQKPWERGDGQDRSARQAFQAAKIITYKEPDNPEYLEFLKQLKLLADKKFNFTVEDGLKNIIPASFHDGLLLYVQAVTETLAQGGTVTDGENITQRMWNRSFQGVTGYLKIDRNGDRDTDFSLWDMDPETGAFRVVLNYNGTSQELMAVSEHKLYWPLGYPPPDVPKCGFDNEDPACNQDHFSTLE

rNPR1-ANP complex [3] = molecular target: T3, rNPR1-ANP complex (rat, UniProt P01160 124-151 (human entry), limits assumed); assay: FabCys affinity (Biacore per paragraph 323)
T3 construct: rNPR1 antigen in the presence of ANP; also called rNPR1 + 100 nM ANP
T3 sequence: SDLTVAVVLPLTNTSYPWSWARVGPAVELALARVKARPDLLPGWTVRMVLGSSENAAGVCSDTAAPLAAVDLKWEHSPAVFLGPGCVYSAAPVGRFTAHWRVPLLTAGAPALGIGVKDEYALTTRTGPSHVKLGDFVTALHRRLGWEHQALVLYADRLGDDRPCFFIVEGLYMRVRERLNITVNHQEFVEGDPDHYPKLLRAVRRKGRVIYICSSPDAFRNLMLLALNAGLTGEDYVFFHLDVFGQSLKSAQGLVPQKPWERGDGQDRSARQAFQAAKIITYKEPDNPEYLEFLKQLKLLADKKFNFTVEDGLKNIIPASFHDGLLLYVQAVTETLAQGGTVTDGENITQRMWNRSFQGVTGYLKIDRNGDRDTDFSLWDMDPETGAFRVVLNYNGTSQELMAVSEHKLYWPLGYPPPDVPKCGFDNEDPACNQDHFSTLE
T3 sequence (peptide): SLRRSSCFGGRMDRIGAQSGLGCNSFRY

hNPR1-ANP complex [4] = molecular target: T4, hNPR1-ANP complex (human, UniProt P01160 124-151, limits assumed); assay: FabCys affinity (Biacore per paragraph 323)
T4 construct: hNPR1 antigen in the presence of ANP; also called hNPR1 + 100 nM ANP
T4 sequence: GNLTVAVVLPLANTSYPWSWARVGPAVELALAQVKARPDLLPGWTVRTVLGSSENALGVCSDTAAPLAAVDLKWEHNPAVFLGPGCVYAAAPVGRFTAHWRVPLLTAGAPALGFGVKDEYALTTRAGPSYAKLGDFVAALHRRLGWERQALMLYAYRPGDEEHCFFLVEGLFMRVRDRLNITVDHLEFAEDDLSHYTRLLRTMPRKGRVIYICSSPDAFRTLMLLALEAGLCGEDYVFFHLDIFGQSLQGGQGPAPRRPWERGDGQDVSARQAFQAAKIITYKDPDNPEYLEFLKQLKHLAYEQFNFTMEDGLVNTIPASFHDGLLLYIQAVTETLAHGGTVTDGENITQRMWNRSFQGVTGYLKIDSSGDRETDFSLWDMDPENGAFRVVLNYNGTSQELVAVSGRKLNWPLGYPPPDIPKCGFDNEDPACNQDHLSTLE
T4 sequence (peptide): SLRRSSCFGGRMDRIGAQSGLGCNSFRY

[5] = molecular target: T1, human Natriuretic Peptide Receptor 1 …; assay: FabCys, parental value by Biacore, as in Table 5
rat NPR1 (rNPR1) [6] = molecular target: T2, rat NPR1 (rNPR1); assay: FabCys, parental value by Biacore, as in Table 5
rNPR1-ANP complex [7] = molecular target: T3, rNPR1-ANP complex; assay: FabCys, parental value by Biacore, as in Table 5
hNPR1-ANP complex [8] = molecular target: T4, hNPR1-ANP complex; assay: FabCys, parental value by Biacore, as in Table 5
[9] = molecular target: T5, human NPR1 on CHO-K1 cells (human, UniProt P16066 33-1061); assay: cell-based or functional assay
T5 sequence: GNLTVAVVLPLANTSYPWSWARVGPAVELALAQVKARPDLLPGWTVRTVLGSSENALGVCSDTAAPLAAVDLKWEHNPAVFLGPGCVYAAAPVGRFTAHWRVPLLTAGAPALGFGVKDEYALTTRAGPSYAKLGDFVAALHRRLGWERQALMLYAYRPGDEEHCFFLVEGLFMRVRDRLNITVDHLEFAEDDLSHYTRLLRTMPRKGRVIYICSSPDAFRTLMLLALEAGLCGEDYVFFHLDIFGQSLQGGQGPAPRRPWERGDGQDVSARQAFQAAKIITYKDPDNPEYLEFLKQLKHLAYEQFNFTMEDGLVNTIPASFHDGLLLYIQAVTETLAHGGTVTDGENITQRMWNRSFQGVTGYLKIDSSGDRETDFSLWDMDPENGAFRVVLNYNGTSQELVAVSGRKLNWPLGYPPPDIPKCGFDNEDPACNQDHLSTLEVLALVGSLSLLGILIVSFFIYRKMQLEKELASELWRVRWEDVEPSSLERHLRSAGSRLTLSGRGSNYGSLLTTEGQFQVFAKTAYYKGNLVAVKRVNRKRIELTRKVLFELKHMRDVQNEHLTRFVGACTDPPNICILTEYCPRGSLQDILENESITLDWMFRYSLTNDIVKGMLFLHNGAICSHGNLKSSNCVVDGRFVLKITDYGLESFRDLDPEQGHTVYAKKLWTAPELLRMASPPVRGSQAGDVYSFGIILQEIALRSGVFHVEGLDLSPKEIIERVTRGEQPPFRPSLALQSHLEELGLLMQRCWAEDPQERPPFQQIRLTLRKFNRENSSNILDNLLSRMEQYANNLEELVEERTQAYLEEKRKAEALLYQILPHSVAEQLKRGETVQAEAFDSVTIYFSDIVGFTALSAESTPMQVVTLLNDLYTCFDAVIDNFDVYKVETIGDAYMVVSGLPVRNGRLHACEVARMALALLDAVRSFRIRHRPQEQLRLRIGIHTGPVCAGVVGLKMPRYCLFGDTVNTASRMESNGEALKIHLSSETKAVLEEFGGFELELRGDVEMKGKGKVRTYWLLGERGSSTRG

[10] = molecular target: T6, human NPR3 in the presence of ANP (human, UniProt P17342 27-481; P01160 124-151, limits assumed); assay: FabCys affinity determination
T6 construct: also called hNPR3 + 100 nM ANP
T6 sequence (looked up): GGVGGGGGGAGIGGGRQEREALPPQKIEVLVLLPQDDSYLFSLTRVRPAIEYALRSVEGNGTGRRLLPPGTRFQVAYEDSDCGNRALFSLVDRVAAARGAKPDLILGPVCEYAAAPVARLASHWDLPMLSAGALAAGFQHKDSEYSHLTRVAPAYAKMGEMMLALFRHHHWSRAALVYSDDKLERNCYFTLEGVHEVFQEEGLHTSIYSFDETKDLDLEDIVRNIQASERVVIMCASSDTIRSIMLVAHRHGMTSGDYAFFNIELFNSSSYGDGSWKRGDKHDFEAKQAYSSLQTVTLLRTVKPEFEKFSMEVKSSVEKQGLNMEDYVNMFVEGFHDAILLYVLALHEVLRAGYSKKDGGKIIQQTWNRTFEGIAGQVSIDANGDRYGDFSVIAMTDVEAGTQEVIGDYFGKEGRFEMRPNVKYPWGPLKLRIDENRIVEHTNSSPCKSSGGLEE
T6 sequence (peptide, looked up): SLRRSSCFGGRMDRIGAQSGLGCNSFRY

[11] = molecular target: T7, human NPR3 (counter target) (human, UniProt P17342 27-481, limits assumed); assay: FabCys affinity determination
T7 construct: Pannings used hNPR3-hFc; also called hNPR3; hNPR3-hFc
T7 sequence (looked up): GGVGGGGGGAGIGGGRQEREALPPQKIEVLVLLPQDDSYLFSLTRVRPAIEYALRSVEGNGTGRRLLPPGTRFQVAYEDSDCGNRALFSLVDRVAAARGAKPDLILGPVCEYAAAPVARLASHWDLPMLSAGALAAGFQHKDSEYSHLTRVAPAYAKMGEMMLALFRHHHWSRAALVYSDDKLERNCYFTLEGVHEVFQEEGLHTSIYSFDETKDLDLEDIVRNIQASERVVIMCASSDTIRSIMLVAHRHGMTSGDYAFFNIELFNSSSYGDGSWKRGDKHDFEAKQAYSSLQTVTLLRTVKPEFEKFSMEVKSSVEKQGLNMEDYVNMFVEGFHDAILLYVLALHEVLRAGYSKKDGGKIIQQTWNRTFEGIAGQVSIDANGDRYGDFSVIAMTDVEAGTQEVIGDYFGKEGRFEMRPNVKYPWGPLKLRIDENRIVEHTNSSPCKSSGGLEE

Kd [1]: 1000 nM
Kd (rat NPR1 (rNPR1) [2]): 2600 nM
Kd (rNPR1-ANP complex [3]): 1 nM
Kd (hNPR1-ANP complex [4]): 0.1 nM
Kd [5]: 1000 nM
Kd (rat NPR1 (rNPR1) [6]): 2600 nM
Kd (rNPR1-ANP complex [7]): 1 nM
Kd (hNPR1-ANP complex [8]): 0.1 nM
cGMP conc [nM] at 2 µM FabCys, +0.075 nM ANP [9]: 108 nM
cGMP conc [nM] at 2 µM FabCys, without ANP [9]: 32 nM
binding result [10]: no binding
binding result [11]: no binding
B1: WW03 (FabCys format) (Fab, V domains shown)
VH: QVQLLESGGGLVQPGGSLRLSCAASGFTFSSYWMNWVRQAPGKGLEWVSAISSDGSYTYYADSVKGRFTISRDNSKNTLYLQMNSLRAEDTAVYYCARDRYSMIYSYGAGAFDYWGQGTLVTVSS
VL: DIQMTQSPSSLSASVGDRVTITCRASQGISSYLAWYQQKPGKAPKLLIYTASTLQSGVPSRFSGSGSGTDFTLTISSLQPEDFATYYCMQSYEKPRTFGQGTKVEIK
notes: Monovalent FabCys
